Experimental findings from PMC9371678 are described below.

This test addresses HA-PTH1R_(mTurquoise/mCitrine) (human) (UniProt Q03431).
Chain of UniProt Q03431 (Q03431 27-593): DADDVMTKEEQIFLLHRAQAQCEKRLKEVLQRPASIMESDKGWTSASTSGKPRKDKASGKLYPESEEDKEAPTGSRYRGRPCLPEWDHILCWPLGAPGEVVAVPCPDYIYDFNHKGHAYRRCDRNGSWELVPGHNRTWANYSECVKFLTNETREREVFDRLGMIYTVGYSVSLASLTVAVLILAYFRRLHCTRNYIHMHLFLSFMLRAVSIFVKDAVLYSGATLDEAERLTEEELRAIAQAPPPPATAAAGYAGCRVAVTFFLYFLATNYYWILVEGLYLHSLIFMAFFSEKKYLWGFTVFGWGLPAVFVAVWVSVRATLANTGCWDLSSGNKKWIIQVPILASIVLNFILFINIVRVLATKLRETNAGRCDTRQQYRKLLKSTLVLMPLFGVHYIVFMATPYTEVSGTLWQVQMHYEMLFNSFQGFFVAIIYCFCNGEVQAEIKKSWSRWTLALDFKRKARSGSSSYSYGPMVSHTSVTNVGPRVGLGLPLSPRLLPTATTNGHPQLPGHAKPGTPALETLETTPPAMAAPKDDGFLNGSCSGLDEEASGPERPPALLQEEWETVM

Turning to “parathyroid hormone PTH (1–34) (peptide)”, the pEC50 of the PTH-induced FRET change of the PTH1R (FRET) conformational biosensor (plate reader, HEK293 cells), with RAMP2 (SNAP) coexpressed (1 µg cDNA) came to 8.59 and the pEC50 of the PTH-induced FRET change of the PTH1R (FRET) conformational biosensor (plate reader, HEK293 cells), without RAMP2 came to 8.73.
